The values that follow come from article PMC12487888 (2025).

The target in the test is EutQ (residues 1 to 229) (S. Typhimurium LT2, UniProt Q9ZFV5 1-229). Nature of the test: ITC.
Chain of EutQ (residues 1 to 229) (Q9ZFV5 whole entry, the tested form may be a part): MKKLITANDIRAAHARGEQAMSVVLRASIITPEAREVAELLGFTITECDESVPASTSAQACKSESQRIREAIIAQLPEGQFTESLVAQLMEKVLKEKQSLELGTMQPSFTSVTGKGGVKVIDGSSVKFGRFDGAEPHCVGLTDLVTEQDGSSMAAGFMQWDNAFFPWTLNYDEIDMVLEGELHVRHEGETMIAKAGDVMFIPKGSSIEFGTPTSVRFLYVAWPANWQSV

In the case of MNQQDIEQVVKAVLLKMKDS [EutE^1–20 encapsulation peptide], the affinity, expressed as Kd, was 14.1 µM.
